In US7528106B2, “Compositions and methods for treatment of neovascular diseases” (The Scripps Research Institute, priority 2004, dated 2009):

System: deep retinal vascular network formation in neonatal Balb/C mice
Test: Neonatal mouse retinal angiogenesis model
Format: in vivo
Conditions: for % of eyes with 75-100% inhibition of deep vascular layer / % of eyes with 0-10% inhibition of deep vascular layer / % of eyes with 10-25% inhibition of deep vascular layer / % of eyes with 25-50% inhibition of deep vascular layer / % of eyes with 50-75% inhibition of deep vascular layer: intravitreal P4, read P12
Text: Description of the Model. Immediately after birth (postnatal day zero; “P0”), retinal vasculature is virtually absent in the mouse. By four weeks after birth (P28) the retina has attained an adult pattern of retinal vessels coincident with the onset of vision. Physiological neovascularization of the retina occurs during this period via a stereotypical, biphasic developmental pattern of angiogenesis. During the primary phase of retinal vascular development, spoke-like peripapillary vessels grow radially from the central retinal artery and vein, becoming progressively interconnected by a capillary plexus that forms between them. This “inner retinal plexus” grows in area, volume and complexity, centrifugally, as a monolayer within the nerve fiber layer during the first seven to ten days following birth.
The second phase of retinal vessel formation begins between postnatal days 7 (P7) and 10 (P10) when collateral branches sprout from capillaries of the superficial plexus and penetrate into the retina where their tips branch and anastamose laterally to form a planar “deep vascular plexus”. While the deep vascular plexus is in place by P14, it undergoes extensive remodeling from P14 to P21. It is of interest to note that the formation of these vascular networks in the neonatal mouse are strikingly similar to the events occurring in the third trimester human fetus.
Advantages and Quantification of the Model. The reproducibility of the murine retinal development process and its easy accessibility in neonatal animals provide an opportunity to assess the efficacy of antiangiogenic compounds in a physiologically relevant model of angiogenesis. Additional advantages of the neonatal mouse model are the ability to qualitatively and quantitatively evaluate the angiostatic effect of putative antagonists of angiogenesis. Angiostatic activity was evaluated based upon the degree of angiogenesis in the deep, outer retinal vascular layer (secondary layer) that develops between P8 and P12. The appearance of the inner blood vessel network (primary layer) was evaluated for normal development and signs of toxicity.
Preparation of Compositions. Peptidomimetic integrin signaling inhibitor Compound (1) is solubilized in PBS at a concentration of about 20 mg/ml in PBS (1× concentration). T2-TrpRS is solubilized in PBS at a concentration of about 0.5 mg/ml (1× concentration). VEGF aptamer (pegaptanib sodium; Compound (2)) is solubilized in PBS at a concentration of about 2 mg/ml (1× concentration) to achieve an injection of approximately 1 μg/eye at 1× concentration. For all combination assays the compounds were prepared at 2 or 3 times the 1× concentration of each material and then combined to produce a final solution containing each individual compound at the same concentration as was used alone (e.g., 1×, 0.5×, 0.25× or 0.1×, as the case may be). For all assays, a single injection of 0.5 μl of PBS solutions of the drugs was administered intravitreally regardless of the number of compounds being injected. As used herein, the term “0.1×” refers to one tenth of the 1× concentration of a given material, “0.25×” refers to one quarter of the 1× concentration of a given material, “0.5×” refers to one half of the 1× concentration of a given material, and so forth for similar designations.
An in vivo angiogenesis assay in the neonatal mouse (Balb/C, The Jackson Laboratory, Bar Harbor, Me.) was used to evaluate the angiostatic activity of integrin signaling inhibitor Compound (1), T2-TrpRS, and VEGF aptamer Compound (2). Intravitreous injection and retina isolation was performed with a dissecting microscope (SMZ 645, Nikon, Japan). […] The samples (0.5 μl) were injected with a Hamilton syringe fitted with a 32-gauge needle (Hamilton Company, Reno, Nev.). The injection was made between the equator and the corneal limbus. During injection, the location of the needle tip was monitored by direct visualization to determine that it was in the vitreal cavity. […]

[1] = Table 12, composite data from the Examples, 1× (Compound (2) 0.5× to 1×)
[2] = Table 13A, 0.25 μg per eye, intravitreal P7, read P12
[3] = Table 13C low dosing, 0.1x (integrin ant. 1.0 μg, VEGF apt. 0.20 μg, T2-TrpRS 0.025 μg)

B1: T2-TrpRS: 43 kDa angiostatic T2 fragment of human tryptophanyl-tRNA synthetase, SEQ ID NO: 1 (protein)
chain: MSAKGIDYDKLIVRFGSSKIDKELINRIERATGQRPHHFLRRGIFFSHRDMNQVLDAYENKKPFYLYTGRGPSSEAMHVGHLIPFIFTKWLQDVFNVPLVIQMTDDEKYLWKDLTLDQAYSYAVENAKDIIACGFDINKTFIFSDLDYMGMSSGFYKNVVKIQKHVTFNQVKGIFGFTDSDCIGKISFPAIQAAPSFSNSFPQIFRDRTDIQCLIPCAIDQDPYFRMTRDVAPRIGYPKPALLHSTFFPALQGAQTKMSASDPNSSIFLTDTAKQIKTKVNKHAFSGGRDTIEEHRQFGGNCDVDVSFMYLTFFLEDDDKLEQIRKDYTSGAMLTGELKKALIEVLQPLIAEHQARRKEVTDEIVKEFMTPRKLSFDFQ
modifications: homo sapiens
With B1 the “% of eyes with 75-100% inhibition of deep vascular layer” value (Ex 10, 0.3× (1×=0.5 mg/ml)) was 25%, the “% of eyes with 0-10% inhibition of deep vascular layer” value (Ex 10, 1× (0.5 mg/ml)) was 8.3% and the “% of eyes with 10-25% inhibition of deep vascular layer” value (Ex 10, 1× (0.5 mg/ml)) was 16.7%. The “% of eyes with 25-50% inhibition of deep vascular layer” value (Ex 10, 1× (0.5 mg/ml)) was 25%, the “% of eyes with 50-75% inhibition of deep vascular layer” value (Ex 10, 1× (0.5 mg/ml)) was 8.7% and the “% of eyes with 75-100% inhibition of deep vascular layer” value (Ex 10, 1× (0.5 mg/ml)) was 41.7%. The “% of eyes with 0-10% inhibition of deep vascular layer” value (Ex 10, 2× (1×=0.5 mg/ml)) was 8.3%, the “% of eyes with 10-25% inhibition of deep vascular layer” value (Ex 10, 2× (1×=0.5 mg/ml)) was 25% and the “% of eyes with 25-50% inhibition of deep vascular layer” value (Ex 10, 2× (1×=0.5 mg/ml)) was 0%. The “% of eyes with 50-75% inhibition of deep vascular layer” value (Ex 10, 2× (1×=0.5 mg/ml)) was 16.7%, the “% of eyes with 75-100% inhibition of deep vascular layer” value (Ex 10, 2× (1×=0.5 mg/ml)) was 41.7% and the “% of eyes with 0-10% inhibition of deep vascular layer” value (Ex 10, 3× (1×=0.5 mg/ml)) was 66.7%. The “% of eyes with 10-25% inhibition of deep vascular layer” value (Ex 10, 3× (1×=0.5 mg/ml)) was 25%, the “% of eyes with 25-50% inhibition of deep vascular layer” value (Ex 10, 3× (1×=0.5 mg/ml)) was 8.7% and the “% of eyes with 50-75% inhibition of deep vascular layer” value (Ex 10, 3× (1×=0.5 mg/ml)) was 0%. For the same molecule, the “% of eyes with 75-100% inhibition of deep vascular layer” value (Ex 10, 3× (1×=0.5 mg/ml)) was 0%, the “% of eyes with 0-10% inhibition of deep vascular layer” value (Ex 11, 0.3× (1×=0.5 mg/ml)) was 33.3% and the “% of eyes with 10-25% inhibition of deep vascular layer” value (Ex 11, 0.3× (1×=0.5 mg/ml)) was 16.7%. The “% of eyes with 25-50% inhibition of deep vascular layer” value (Ex 11, 0.3× (1×=0.5 mg/ml)) was 0%, the “% of eyes with 50-75% inhibition of deep vascular layer” value (Ex 11, 0.3× (1×=0.5 mg/ml)) was 0% and the “% of eyes with 75-100% inhibition of deep vascular layer” value (Ex 11, 0.3× (1×=0.5 mg/ml)) was 50%. The “% of eyes with 0-10% inhibition of deep vascular layer” value (Ex 11, 1× (0.5 mg/ml)) was 14.3%, the “% of eyes with 10-25% inhibition of deep vascular layer” value (Ex 11, 1× (0.5 mg/ml)) was 14.3% and the “% of eyes with 25-50% inhibition of deep vascular layer” value (Ex 11, 1× (0.5 mg/ml)) was 7.1%. For the same molecule, the “% of eyes with 50-75% inhibition of deep vascular layer” value (Ex 11, 1× (0.5 mg/ml)) was 14.3%, the “% of eyes with 75-100% inhibition of deep vascular layer” value (Ex 11, 1× (0.5 mg/ml)) was 50% and the “% of eyes with 0-10% inhibition of deep vascular layer” value (Ex 11, 2× (1×=0.5 mg/ml)) was 12.5%. For the same molecule, the “% of eyes with 10-25% inhibition of deep vascular layer” value (Ex 11, 2× (1×=0.5 mg/ml)) was 12.5%, the “% of eyes with 25-50% inhibition of deep vascular layer” value (Ex 11, 2× (1×=0.5 mg/ml)) was 12.5% and the “% of eyes with 50-75% inhibition of deep vascular layer” value (Ex 11, 2× (1×=0.5 mg/ml)) was 12.5%. For the same molecule, the “% of eyes with 75-100% inhibition of deep vascular layer” value (Ex 11, 2× (1×=0.5 mg/ml)) was 50%, the “% of eyes with 0-10% inhibition of deep vascular layer” value (Ex 11, 3× (1×=0.5 mg/ml)) was 14.3% and the “% of eyes with 10-25% inhibition of deep vascular layer” value (Ex 11, 3× (1×=0.5 mg/ml)) was 14.3%. The “% of eyes with 25-50% inhibition of deep vascular layer” value (Ex 11, 3× (1×=0.5 mg/ml)) was 14.3%, the “% of eyes with 50-75% inhibition of deep vascular layer” value (Ex 11, 3× (1×=0.5 mg/ml)) was 28.5% and the “% of eyes with 75-100% inhibition of deep vascular layer” value (Ex 11, 3× (1×=0.5 mg/ml)) was 28.5%. For the same molecule, the “% of eyes with 0-10% inhibition of deep vascular layer” value (Ex 11, 5× (1×=0.5 mg/ml)) was 16.6%, the “% of eyes with 10-25% inhibition of deep vascular layer” value (Ex 11, 5× (1×=0.5 mg/ml)) was 33.3% and the “% of eyes with 25-50% inhibition of deep vascular layer” value (Ex 11, 5× (1×=0.5 mg/ml)) was 33.3%. For the same molecule, the “% of eyes with 50-75% inhibition of deep vascular layer” value (Ex 11, 5× (1×=0.5 mg/ml)) was 16.6%, the “% of eyes with 75-100% inhibition of deep vascular layer” value (Ex 11, 5× (1×=0.5 mg/ml)) was 0% and the “mice having 75-100% inhibition in the deep vascular layer, maximum over doses” value (Examples 10 and 11, 0.1× to 5×) was ≤ 50%. The “% of mice with 0-10% inhibition of deep vascular layer” value [1] was 23.9%, the “% of mice with 10-25% inhibition of deep vascular layer” value [1] was 17.4% and the “% of mice with 25-50% inhibition of deep vascular layer” value [1] was 15.2%. The “% of mice with 50-75% inhibition of deep vascular layer” value [1] was 8.7%, the “% of mice with 75-100% inhibition of deep vascular layer” value [1] was 34.8% and the “% of mice with 100% inhibition of deep vascular layer” value [1] was 2.2%. The “% of mice with >95% inhibition of deep vascular layer” value [1] was 8.7%, the “Percentage of retinas with 0-10% neovascular inhibition” value [2] was 23.9% and the “Percentage of retinas with 10-25% neovascular inhibition” value [2] was 17.4%. For the same molecule, the “Percentage of retinas with 25-50% neovascular inhibition” value [2] was 15.2%, the “Percentage of retinas with 50-75% neovascular inhibition” value [2] was 8.7% and the “Percentage of retinas with 100% neovascular inhibition” value [2] was 2.2%. For the same molecule, the “Percentage of retinas with >75% neovascular inhibition” value [2] was 34.8%, the “Percentage of retinas with >90% neovascular inhibition” value [2] was 8.7% and the “Percentage of retinas with 0-10% neovascular inhibition” value [3] was 50%. The “Percentage of retinas with 10-25% neovascular inhibition” value [3] was 37.5%, the “Percentage of retinas with 25-50% neovascular inhibition” value [3] was 12.5% and the “Percentage of retinas with 50-75% neovascular inhibition” value [3] was 0%. The “Percentage of retinas with 100% neovascular inhibition” value [3] was 0%, the “Percentage of retinas with >75% neovascular inhibition” value [3] was 0% and the “Percentage of retinas with >90% neovascular inhibition” value [3] was 0%. For the same molecule, the “retinas that developed a normal, complete deep vascular plexus” value (monotherapy at optimal dose) was 24%, the “retinas that exhibited over 75% inhibition” value (monotherapy at optimal dose) was 35% and the “efficacy at the 95-100% inhibition level” value (with increasing dosages, Examples 10 and 11) was ≤ 50%.
